Columns and labels:
[1] = biological target: ヒトD374Y PCSK9 (human); experiment: cell-based or functional assay
[2] = biological target: ヒトD374Y PCSK9 (human); experiment: competition ELISA: block of biotinylated D374Y PCSK9 (20 ng/mL) binding to captured LDLR
[3] = biological target: ヒトPCSK9(野生型) (human); experiment: Biacore at pH 6.0 (HBS-P with 0.01 % BSA), fitted from competition curves, n=1

Substance	細胞LDL取り込みアッセイ(HepG2、LDL-BODIPY)のIC50 [1] [nM]	IC50 [2] [nM]	Kd [3] [nM]
21B12 IgG2 (antibody)	13.3	0.17	–
21B12 (antibody)	–	–	0.0073
31H4 IgG2 (antibody)	16.7	0.199	–

Further substances by falling IC50 [2], results first:

細胞LDL取り込みアッセイ(HepG2、LDL-BODIPY)のIC50 [1] [nM]	IC50 [2] [nM]	Kd [3] [nM]	Substance
18	0.169	–	21B12 IgG4 (antibody)
13.3	0.156	–	31H4 IgG4 (antibody)

Source: patent JP2016528193A
